Read-outs that look alike come from different tables or passages of the source.
Key:
[1] = molecular target: T1, 4H741-bH; assay: two-hybrid library CCNG1;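 further: natural log of median RNA to DNA barcode read ratio; higher means stronger binding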
T1 chain: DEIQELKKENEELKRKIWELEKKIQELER

[2] = molecular target: T2, 4H3057-bH; assay: two-hybrid library CCNG1;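 further: natural log of median RNA to DNA barcode read ratio; higher means stronger binding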
T2 chain: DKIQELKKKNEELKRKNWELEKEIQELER

[3] = molecular target: T3, 4H477-bH; assay: two-hybrid library CCNG1;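 further: natural log of median RNA to DNA barcode read ratio; higher means stronger binding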
T3 chain: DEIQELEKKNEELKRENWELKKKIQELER

[4] = molecular target: T4, 4H348-bH; assay: two-hybrid library CCNG1;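 further: natural log of median RNA to DNA barcode read ratio; higher means stronger binding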
T4 chain: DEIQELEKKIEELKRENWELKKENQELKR

[5] = molecular target: T5, 4H319-bH; assay: two-hybrid library CCNG1
T5 chain: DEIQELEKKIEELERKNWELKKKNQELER

[6] = molecular target: T6, 4H40-bH; assay: two-hybrid library CCNG1
T6 chain: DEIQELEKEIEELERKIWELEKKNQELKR

[7] = molecular target: T7, 4H492-bH; assay: two-hybrid library CCNG1
T7 chain: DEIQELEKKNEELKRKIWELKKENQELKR

[8] = molecular target: T8, 4H3277-bH; assay: two-hybrid library CCNG1
T8 chain: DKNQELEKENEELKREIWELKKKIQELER

[9] = molecular target: T9, P2-AA; assay: two-hybrid library CCmax; details: mean of both orientations
T9 chain: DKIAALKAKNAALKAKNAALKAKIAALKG

[10] = molecular target: T10, AP7-AA; assay: two-hybrid library CCmax
T10 chain: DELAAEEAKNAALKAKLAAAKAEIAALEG

[11] = molecular target: T11, P9-AA; assay: two-hybrid library CCmax; details: mean of both orientations
T11 chain: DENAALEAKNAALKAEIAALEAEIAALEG

[12] = molecular target: T12, AP8-AA; assay: two-hybrid library CCmax; details: mean of both orientations
T12 chain: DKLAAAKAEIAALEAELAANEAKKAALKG

[13] = molecular target: T13, P10-AA; assay: two-hybrid library CCmax; details: mean of both orientations
T13 chain: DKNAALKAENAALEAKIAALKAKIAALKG

[14] = molecular target: T14, P12-AA; assay: two-hybrid library CCmax; details: mean of both orientations
T14 chain: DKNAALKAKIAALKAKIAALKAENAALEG

[15] = molecular target: T15, P7-AA; assay: two-hybrid library CCmax; details: mean of both orientations
T15 chain: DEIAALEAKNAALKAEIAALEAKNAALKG

[16] = molecular target: T16, P1-AA; assay: two-hybrid library CCmax; details: mean of both orientations
T16 chain: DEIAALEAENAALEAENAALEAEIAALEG

[17] = molecular target: T17, P11-AA; assay: two-hybrid library CCmax; details: mean of both orientations
T17 chain: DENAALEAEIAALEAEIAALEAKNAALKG

[18] = molecular target: T18, P4-AA; assay: two-hybrid library CCmax; details: mean of both orientations
T18 chain: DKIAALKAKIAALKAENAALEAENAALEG

[19] = molecular target: T19, P8-AA; assay: two-hybrid library CCmax; details: mean of both orientations
T19 chain: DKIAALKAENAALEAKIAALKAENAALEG

[20] = molecular target: GCN2_T; assay: two-hybrid library CCmax
[21] = molecular target: T20, P3-AA; assay: two-hybrid library CCmax; details: mean of both orientations
T20 chain: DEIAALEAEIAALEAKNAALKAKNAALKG

[22] = molecular target: T21, 4H380-AA; assay: two-hybrid library CCmax; details: mean of both orientations
T21 chain: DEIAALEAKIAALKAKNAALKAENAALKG

[23] = molecular target: T22, 4H446-AA; assay: two-hybrid library CCmax; details: mean of both orientations
T22 chain: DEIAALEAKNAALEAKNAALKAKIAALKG

[24] = molecular target: T23, 4H63-AA; assay: two-hybrid library CCmax; details: mean of both orientations
T23 chain: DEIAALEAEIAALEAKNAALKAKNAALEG

[25] = molecular target: T24, 4H3629-AA; assay: two-hybrid library CCmax; details: mean of both orientations
T24 chain: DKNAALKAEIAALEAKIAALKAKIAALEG

[26] = molecular target: T25, 4H2903-AA; assay: two-hybrid library CCmax; details: mean of both orientations
T25 chain: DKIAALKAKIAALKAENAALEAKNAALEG

[27] = molecular target: T26, 4H2774-AA; assay: two-hybrid library CCmax; details: mean of both orientations
T26 chain: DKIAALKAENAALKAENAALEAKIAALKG

[28] = molecular target: T27, 4H341-AA; assay: two-hybrid library CCmax; details: mean of both orientations
T27 chain: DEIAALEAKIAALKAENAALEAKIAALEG

[29] = molecular target: T28, 4H3974-AA; assay: two-hybrid library CCmax; details: mean of both orientations
T28 chain: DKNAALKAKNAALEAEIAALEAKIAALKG

[30] = molecular target: T29, 4H3094-AA; assay: two-hybrid library CCmax; details: mean of both orientations
T29 chain: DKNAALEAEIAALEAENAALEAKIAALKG

[31] = molecular target: T30, 4H324-AA; assay: two-hybrid library CCmax; details: mean of both orientations
T30 chain: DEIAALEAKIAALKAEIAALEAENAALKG

[32] = molecular target: T31, 4H2961-AA; assay: two-hybrid library CCmax; details: mean of both orientations
T31 chain: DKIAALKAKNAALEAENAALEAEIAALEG

[33] = molecular target: T32, 4H3777-AA; assay: two-hybrid library CCmax; details: mean of both orientations
T32 chain: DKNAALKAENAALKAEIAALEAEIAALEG

[34] = molecular target: T33, 4H432-AA; assay: two-hybrid library CCmax; details: mean of both orientations
T33 chain: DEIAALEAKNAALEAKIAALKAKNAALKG

[35] = molecular target: T34, 4H3449-AA; assay: two-hybrid library CCmax; details: mean of both orientations
T34 chain: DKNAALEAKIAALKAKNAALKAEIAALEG

[36] = molecular target: T35, 4H3619-AA; assay: two-hybrid library CCmax; details: mean of both orientations
T35 chain: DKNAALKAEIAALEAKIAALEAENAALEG

[37] = molecular target: T36, 4H3049-AA; assay: two-hybrid library CCmax; details: mean of both orientations
T36 chain: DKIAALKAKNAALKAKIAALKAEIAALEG

[38] = molecular target: T37, 4H2947-AA; assay: two-hybrid library CCmax; details: mean of both orientations
T37 chain: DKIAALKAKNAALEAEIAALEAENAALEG

[39] = molecular target: T38, 4H2760-AA; assay: two-hybrid library CCmax
T38 chain: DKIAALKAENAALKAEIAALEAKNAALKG

[40] = molecular target: T39, 4H3915-AA; assay: two-hybrid library CCmax; details: mean of both orientations
T39 chain: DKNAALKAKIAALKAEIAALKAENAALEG

[41] = molecular target: T40, 4H687-bN; assay: two-hybrid library CCNG1
T40 chain: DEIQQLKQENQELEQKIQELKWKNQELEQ

[42] = molecular target: T41, 4H462-bN; assay: two-hybrid library CCNG1
T41 chain: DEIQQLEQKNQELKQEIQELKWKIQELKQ

[43] = molecular target: T42, 4H967-bN; assay: two-hybrid library CCNG1
T42 chain: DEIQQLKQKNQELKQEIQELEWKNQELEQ

[44] = molecular target: T43, 4H568-bN; assay: two-hybrid library CCNG1
T43 chain: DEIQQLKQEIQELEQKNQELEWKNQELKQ

[45] = molecular target: T44, 4H3782-bN; assay: two-hybrid library CCNG1
T44 chain: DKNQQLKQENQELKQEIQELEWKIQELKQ

[46] = molecular target: T45, 4H953-bN; assay: two-hybrid library CCNG1
T45 chain: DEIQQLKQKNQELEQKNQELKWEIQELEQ

[47] = molecular target: T46, 4H607-bN; assay: two-hybrid library CCNG1
T46 chain: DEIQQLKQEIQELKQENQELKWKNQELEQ

[48] = molecular target: T47, 4H883-bN; assay: two-hybrid library CCNG1
T47 chain: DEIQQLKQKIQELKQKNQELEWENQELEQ

[49] = molecular target: T48, 4H370-bN; assay: two-hybrid library CCNG1
T48 chain: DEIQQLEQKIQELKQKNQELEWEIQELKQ

[50] = molecular target: T49, 4H918-bN; assay: two-hybrid library CCNG1
T49 chain: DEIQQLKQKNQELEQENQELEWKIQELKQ

[51] = molecular target: T50, 4H797-bN; assay: two-hybrid library CCNG1
T50 chain: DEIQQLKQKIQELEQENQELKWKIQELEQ

[52] = molecular target: T51, 4H4001-bN; assay: two-hybrid library CCNG1
T51 chain: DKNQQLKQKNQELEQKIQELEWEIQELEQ

[53] = molecular target: T52, 4H3843-bN; assay: two-hybrid library CCNG1
T52 chain: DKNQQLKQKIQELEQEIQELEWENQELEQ

[54] = molecular target: T53, 4H72-bN; assay: two-hybrid library CCNG1
T53 chain: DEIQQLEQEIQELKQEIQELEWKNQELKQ

[55] = molecular target: T54, 4H754-bN; assay: two-hybrid library CCNG1
T54 chain: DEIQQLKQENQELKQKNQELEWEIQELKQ

[56] = molecular target: T55, 4H717-bN; assay: two-hybrid library CCNG1
T55 chain: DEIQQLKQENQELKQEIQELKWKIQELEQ

[57] = molecular target: T56, 4H908-bN; assay: two-hybrid library CCNG1
T56 chain: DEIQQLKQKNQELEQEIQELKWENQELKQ

[58] = molecular target: T57, 4H338-bN; assay: two-hybrid library CCNG1
T57 chain: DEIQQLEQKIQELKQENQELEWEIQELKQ

[59] = molecular target: T58, 4H454-bN; assay: two-hybrid library CCNG1
T58 chain: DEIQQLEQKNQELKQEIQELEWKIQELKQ

[60] = molecular target: T59, 4H3855-bN; assay: two-hybrid library CCNG1
T59 chain: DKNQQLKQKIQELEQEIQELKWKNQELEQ

[61] = molecular target: T60, 4H3427-bN; assay: two-hybrid library CCNG1
T60 chain: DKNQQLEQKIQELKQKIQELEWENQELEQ

Binder: DKIQELKKKNEELKRKNWELEKEIQELER [4H3057-bH]
- interaction score [1]: -1.52
- interaction score [2]: -0.611
- interaction score [3]: -1.13
- interaction score [4]: -0.361
- interaction score [5]: -1.81
- interaction score [6]: -1.77
- interaction score [7]: -1.13
- interaction score [8]: -1.01

Binder: DEEAALEAKAAALKAELAANEAKLAAAKG [AP6-AA]
- interaction score [9]: -1.88
- interaction score ([10]; mean of both orientations): -1.62
- interaction score [11]: -0.901
- interaction score [12]: -1.59
- interaction score [13]: -0.802
- interaction score [14]: -1.57
- interaction score [15]: -0.655
- interaction score [16]: -1.88
- interaction score [17]: -1.25
- interaction score [18]: -2.36
- interaction score [19]: -1.22
- interaction score [20]: -1.54
- interaction score [21]: -1.95

Binder: DKIAALKAENAALKAEIAALEAKNAALKG [4H2760-AA]
- interaction score [22]: -1.48
- interaction score [23]: -1.49
- interaction score [24]: -1.64
- interaction score [25]: -1.14
- interaction score [26]: -1.32
- interaction score [27]: -1.29
- interaction score [28]: -0.788
- interaction score [29]: -1.69
- interaction score [30]: 2.17
- interaction score [31]: -1.09
- interaction score [32]: -1.97
- interaction score [33]: -0.779
- interaction score [34]: -0.454
- interaction score [35]: -1.27
- interaction score [36]: -1.77
- interaction score [37]: 1.62
- interaction score [38]: 0.202
- interaction score [39]: 0.876
- interaction score [40]: -1.44

Binder: DEIQQLEQKIQELKQKNQELEWEIQELKQ [4H370-bN]
- interaction score [41]: -1.17
- interaction score [42]: -1.49
- interaction score [43]: -0.814
- interaction score [44]: 0.649
- interaction score [45]: -0.329
- interaction score [46]: -1.96
- interaction score [47]: -0.679
- interaction score [48]: -1.39
- interaction score [49]: 0.966
- interaction score [50]: -0.831
- interaction score [51]: -0.598
- interaction score [52]: -0.655
- interaction score [53]: -0.715
- interaction score [54]: -0.189

Binder: DELAAEEAKNAALKAKLAAAKAEIAALEG [AP7-AA]
- interaction score [9]: -1.94
- interaction score [10]: -1.7
- interaction score [11]: -2.24
- interaction score [12]: -2.81
- interaction score [13]: -0.0128
- interaction score [14]: -1.62
- interaction score [15]: -2.09
- interaction score [16]: -1.52
- interaction score [17]: -0.965
- interaction score [18]: -1.42
- interaction score [19]: -0.66
- interaction score [20]: -2.13
- interaction score [21]: -1.88

Binder: DEIQQLEQKIQELKQENQELEWEIQELKQ [4H338-bN]
- interaction score [55]: -0.701
- interaction score [56]: -1.16
- interaction score [41]: 0.0368
- interaction score [43]: 0.117
- interaction score [44]: 0.409
- interaction score [45]: -0.966
- interaction score [46]: -1.33
- interaction score [47]: -1.19
- interaction score [57]: -0.434
- interaction score [48]: -1.26
- interaction score [58]: -1.01
- interaction score [50]: -0.295
- interaction score [59]: -0.967
- interaction score [51]: -1.45
- interaction score [60]: -0.12
- interaction score [52]: -0.385
- interaction score [54]: -0.606
- interaction score [61]: -0.828

Reference: article PMC10397247
